Measured values from IntAct's records for PubMed 15150238.

B1: DnaA regulatory inactivator Hda (Escherichia coli (strain K12)), P69931 (parent)
chain: MNTPAQLSLPLYLPDDETFASFWPGDNSSLLAALQNVLRQEHSGYIYLWAREGAGRSHLLHAACAELSQRGDAVGYVPLDKRTWFVPEVLDGMEHLSLVCIDNIECIAGDELWEMAIFDLYNRILESGKTRLLITGDRPPRQLNLGLPDLASRLDWGQIYKLQPLSDEDKLQALQLRARLRGFELPEDVGRFLLKRLDREMRTLFMTLDQLDRASITAQRKLTIPFVKEILKL

Legend:
dpo3b_ecoli dnaN, P0A988 [1] = variants of: B1; conditions: with dpo3b_ecoli dnaN
dpo3b_ecoli dnaN, P0A988 [2] = variants of: B1; conditions: with dpo3b_ecoli dnaN; remark: listed apart in the source

Sequence of dpo3b_ecoli dnaN, P0A988 (P0A988 whole entry): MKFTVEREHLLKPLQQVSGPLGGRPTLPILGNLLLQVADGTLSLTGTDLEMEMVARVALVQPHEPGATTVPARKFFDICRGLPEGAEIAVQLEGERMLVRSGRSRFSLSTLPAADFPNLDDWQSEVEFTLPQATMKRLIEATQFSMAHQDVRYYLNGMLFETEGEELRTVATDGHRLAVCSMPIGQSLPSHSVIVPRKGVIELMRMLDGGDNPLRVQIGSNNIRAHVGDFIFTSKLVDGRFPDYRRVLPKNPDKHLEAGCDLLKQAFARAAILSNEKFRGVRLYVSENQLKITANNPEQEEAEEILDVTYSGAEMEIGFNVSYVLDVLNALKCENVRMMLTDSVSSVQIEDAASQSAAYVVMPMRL

Row | Variant | effect of a mutation on the interaction (dpo3b_ecoli dnaN, P0A988 [1]) | effect of a mutation on the interaction (dpo3b_ecoli dnaN, P0A988 [2])
1 | MNTPAQASAPLYLPDDETFASFWPGDNSSLLAALQNVLRQEHSGYIYLWAREGAGRSHLLHAACAELSQRGDAVGYVPLDKRTWFVPEVLDGMEHLSLVCIDNIECIAGDELWEMAIFDLYNRILESGKTRLLITGDRPPRQLNLGLPDLASRLDWGQIYKLQPLSDEDKLQALQLRARLRGFELPEDVGRFLLKRLDREMRTLFMTLDQLDRASITAQRKLTIPFVKEILKL [L7A;L9A] | decreasing interaction | disrupting interaction
2 | MNTPAQLSAALYLPDDETFASFWPGDNSSLLAALQNVLRQEHSGYIYLWAREGAGRSHLLHAACAELSQRGDAVGYVPLDKRTWFVPEVLDGMEHLSLVCIDNIECIAGDELWEMAIFDLYNRILESGKTRLLITGDRPPRQLNLGLPDLASRLDWGQIYKLQPLSDEDKLQALQLRARLRGFELPEDVGRFLLKRLDREMRTLFMTLDQLDRASITAQRKLTIPFVKEILKL [L9A;P10A] | decreasing interaction | disrupting interaction
